The RNAGym collection of RNA variant scans (doi:10.1093/nar/gkz1192)

B1: CPEB3 Ribozyme (parent)
chain: UAACAGGGGGCCACAGCAGAAGCGUUCACGUCGCAGCCCCUGUCAGAUUCUGGUGAAUCUGCGAAUUCUGCUGUAUAUCUC

Variants of: B1
Assay: self-cleavage, relative activity (ratio to wild type); higher = more cleavage; in vitro, sequencing
In short: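 Relative activity compares each variant's cleaved/total read fraction with that of the unmutated ribozyme. To get these fractions, barcoded CPEB3 ribozyme libraries from rounds of error-prone PCR were transcribed with T7 RNA polymerase for 5 hours at 37°C and then given 15 min of DNase I treatment before EDTA was added. The RNAs were reverse transcribed with template switching and sequenced on Illumina, and DNA sequencing linked barcodes to variants. A minimum of 5 reads applied, and three batches were averaged.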

Q: Which self-cleavage does the source give for C38A A65U here?
A: 0.28

Q: For G36U C59U, which self-cleavage is on record?
A: 0.16

Q: For C37A G73C, which self-cleavage is on record?
A: 0.38

Q: With C37U U69C as the variant, how does the self-cleavage read?
A: 0.42

Q: Which self-cleavage does the source give for C37U U69A here?
A: 0.2

Q: Which self-cleavage does the source give for G36C U78C here?
A: 0.14

Q: For C38U A64C, which self-cleavage is on record?
A: 0.82

Q: For C38U A64U, which self-cleavage is on record?
A: 0.37

Q: Which self-cleavage does the source give for C38U A64G here?
A: 0.37

Q: Which self-cleavage does the source give for C38A G73C here?
A: 0.45

Q: With C38A G73U as the variant, how does the self-cleavage read?
A: 0.91

Q: Which self-cleavage does the source give for C37U A64G here?
A: 0.6

Q: For C37U A64U, which self-cleavage is on record?
A: 0.27

Q: With G36C C62U as the variant, how does the self-cleavage read?
A: 0.15

Q: For C37U G61A, which self-cleavage is on record?
A: 0.21

Q: Which self-cleavage does the source give for C38A G42C here?
A: 0.28

Q: With C38U U58G as the variant, how does the self-cleavage read?
A: 0.08

Q: With C38U U58C as the variant, how does the self-cleavage read?
A: 0.19

Q: With C38G U43C as the variant, how does the self-cleavage read?
A: 0.34

Q: Which self-cleavage does the source give for C38G U43A here?
A: 0.14

Q: For C37U A57G, which self-cleavage is on record?
A: 0.58

Q: With G36C U43C as the variant, how does the self-cleavage read?
A: 0.28

Q: For C37U, which self-cleavage is on record?
A: 0.79

Q: With C37A as the variant, how does the self-cleavage read?
A: 0.28

Q: For C37G, which self-cleavage is on record?
A: 0.8

Q: With C37U A47U as the variant, how does the self-cleavage read?
A: 0.39

Q: Which self-cleavage does the source give for C37U A47G here?
A: 0.58

Q: With G36U C37U as the variant, how does the self-cleavage read?
A: 0.1

Q: With C39A G73C as the variant, how does the self-cleavage read?
A: 0.76

Q: With G36U U74C as the variant, how does the self-cleavage read?
A: 0.31

Q: Which self-cleavage does the source give for C38G A57G here?
A: 0.23

Q: With G36U U60C as the variant, how does the self-cleavage read?
A: 0.11

Q: For C39A U41C, which self-cleavage is on record?
A: 0.35

Q: Which self-cleavage does the source give for C39A U41A here?
A: 0.27

Q: With C37U U80C as the variant, how does the self-cleavage read?
A: 0.74

Q: With C37U U80A as the variant, how does the self-cleavage read?
A: 0.99

Q: With C38G U49A as the variant, how does the self-cleavage read?
A: 0.26

Q: With C38U U43C as the variant, how does the self-cleavage read?
A: 0.28

Q: Which self-cleavage does the source give for G36U G63U here?
A: 0.12

Q: For G36U G63A, which self-cleavage is on record?
A: 0.12

Q: Which self-cleavage does the source give for C38U A47G here?
A: 0.66

Q: With C38A A64U as the variant, how does the self-cleavage read?
A: 0.09

Q: For C38A A64C, which self-cleavage is on record?
A: 0.15

Q: Which self-cleavage does the source give for C37U C50A here?
A: 0.47

Q: With C37A C68U as the variant, how does the self-cleavage read?
A: 0.09

Q: Which self-cleavage does the source give for C38U U67A here?
A: 0.41

Q: With C38G C59U as the variant, how does the self-cleavage read?
A: 0.22

Q: For C38U U80A, which self-cleavage is on record?
A: 0.96

Q: With C38U U80C as the variant, how does the self-cleavage read?
A: 1.01

Q: With C38U U80G as the variant, how does the self-cleavage read?
A: 1.03

Q: For G36C U48C, which self-cleavage is on record?
A: 0.4

Q: For G36C U80C, which self-cleavage is on record?
A: 0.13

Q: With G36C U80A as the variant, how does the self-cleavage read?
A: 0.12

Q: Which self-cleavage does the source give for C37A A64G here?
A: 0.25

Q: With C37A C38A as the variant, how does the self-cleavage read?
A: 0.27

Q: For G36U A75G, which self-cleavage is on record?
A: 0.11

Q: With C38A U54C as the variant, how does the self-cleavage read?
A: 0.29

Q: For C38A U54A, which self-cleavage is on record?
A: 0.56

Q: With C37G A47G as the variant, how does the self-cleavage read?
A: 0.58

Q: For C38U G70U, which self-cleavage is on record?
A: 0.38

Q: Which self-cleavage does the source give for C38A U80C here?
A: 0.41

Q: For C38A U80A, which self-cleavage is on record?
A: 0.11

Q: With G36C U74C as the variant, how does the self-cleavage read?
A: 0.2

Q: With C38G U80C as the variant, how does the self-cleavage read?
A: 0.56

Q: Which self-cleavage does the source give for C38G U80A here?
A: 0.26

Q: For G36U U69C, which self-cleavage is on record?
A: 0.15

Q: With G36U U69A as the variant, how does the self-cleavage read?
A: 0.2

Q: With C37A A75G as the variant, how does the self-cleavage read?
A: 0.19

Q: For G36U U54C, which self-cleavage is on record?
A: 0.26

Q: For C39A U48C, which self-cleavage is on record?
A: 0.12

Q: For C39A U48A, which self-cleavage is on record?
A: 0.21

Q: Which self-cleavage does the source give for C38U A77G here?
A: 0.74

Q: With C37U C44U as the variant, how does the self-cleavage read?
A: 0.13

Q: For C37G U67A, which self-cleavage is on record?
A: 0.48

Q: Which self-cleavage does the source give for C39A A45G here?
A: 0.33

Q: With G36C U67C as the variant, how does the self-cleavage read?
A: 0.18

Q: Which self-cleavage does the source give for G36U U58C here?
A: 0.53

Q: For C38U U69G, which self-cleavage is on record?
A: 0.42

Q: Which self-cleavage does the source give for C38U U69A here?
A: 0.53

Q: With C38U U69C as the variant, how does the self-cleavage read?
A: 0.38

Q: Which self-cleavage does the source give for C37U C71G here?
A: 0.21

Q: Which self-cleavage does the source give for C37U C71U here?
A: 0.38

Q: For C37U G73A, which self-cleavage is on record?
A: 1.43

Q: For G36U U41A, which self-cleavage is on record?
A: 0.29

Q: With G36U U41C as the variant, how does the self-cleavage read?
A: 0.3

Q: For C37G G70C, which self-cleavage is on record?
A: 0.2

Q: For C37A U54G, which self-cleavage is on record?
A: 0.2

Q: Which self-cleavage does the source give for G36U U80C here?
A: 0.46

Q: For G36U U80A, which self-cleavage is on record?
A: 0.29

Q: Which self-cleavage does the source give for C37A C71U here?
A: 0.2

Q: With C39A A47C as the variant, how does the self-cleavage read?
A: 0.2

Q: For C39A A47G, which self-cleavage is on record?
A: 0.35

Q: Which self-cleavage does the source give for C37U U72C here?
A: 0.79

Q: For C37U U72A, which self-cleavage is on record?
A: 0.27

Q: With G36U G73A as the variant, how does the self-cleavage read?
A: 0.37

Q: With C37U C79A as the variant, how does the self-cleavage read?
A: 1.11

Q: With C37U C79U as the variant, how does the self-cleavage read?
A: 1.03

Q: For C37U U66A, which self-cleavage is on record?
A: 0.25

Q: Which self-cleavage does the source give for C37U G55U here?
A: 0.88

Q: Which self-cleavage does the source give for C37U U54C here?
A: 0.79

Q: With C37U U54A as the variant, how does the self-cleavage read?
A: 0.82

Q: Which self-cleavage does the source give for C37G U78C here?
A: 0.68

Q: For C37G G42U, which self-cleavage is on record?
A: 0.29

Q: With C39A U54C as the variant, how does the self-cleavage read?
A: 0.25

Q: Which self-cleavage does the source give for C39A U54A here?
A: 0.16

Q: For G36U U76A, which self-cleavage is on record?
A: 0.2

Q: For G36U U76C, which self-cleavage is on record?
A: 0.2

Q: For C38U A56G, which self-cleavage is on record?
A: 0.43

Q: For C38G U67C, which self-cleavage is on record?
A: 0.11

Q: Which self-cleavage does the source give for C37U U48C here?
A: 0.36

Q: For C37A U78A, which self-cleavage is on record?
A: 0.2

Q: With C37A U78C as the variant, how does the self-cleavage read?
A: 0.35

Q: Which self-cleavage does the source give for C37A A45G here?
A: 0.26

Q: With C37A A45U as the variant, how does the self-cleavage read?
A: 0.23

Q: For C37A A45C, which self-cleavage is on record?
A: 0.1

Q: With C37G U69C as the variant, how does the self-cleavage read?
A: 0.23

Q: For C37G U69A, which self-cleavage is on record?
A: 0.19

Q: Which self-cleavage does the source give for C37A U43A here?
A: 0.14

Q: Which self-cleavage does the source give for C37A U43C here?
A: 0.43

Q: Which self-cleavage does the source give for C38U U60G here?
A: 0.25

Q: Which self-cleavage does the source give for C38U U60C here?
A: 0.33

Q: For G36C U49A, which self-cleavage is on record?
A: 0.17

Q: With C38G A64G as the variant, how does the self-cleavage read?
A: 0.2

Q: With C37A U49A as the variant, how does the self-cleavage read?
A: 0.13

Q: For C37A U49C, which self-cleavage is on record?
A: 0.11

Q: With C37A U51C as the variant, how does the self-cleavage read?
A: 0.17

Q: Which self-cleavage does the source give for C39A U72C here?
A: 0.32

Q: Which self-cleavage does the source give for C39A U72A here?
A: 0.35

Q: With G36U G61U as the variant, how does the self-cleavage read?
A: 0.13

Q: Which self-cleavage does the source give for C38U U48C here?
A: 0.35

Q: Which self-cleavage does the source give for C39A U69A here?
A: 0.22

Q: For C39A U69C, which self-cleavage is on record?
A: 0.16

Q: With C39A U69G as the variant, how does the self-cleavage read?
A: 0.14

Q: Which self-cleavage does the source give for G36U A57G here?
A: 0.48

Q: For G36C G55A, which self-cleavage is on record?
A: 0.12

Q: Which self-cleavage does the source give for C38G U41C here?
A: 0.19

Q: With G36U A65U as the variant, how does the self-cleavage read?
A: 0.06

Q: Which self-cleavage does the source give for G36U A65G here?
A: 0.39

Q: Which self-cleavage does the source give for G36C C38A here?
A: 0.16

Q: With G36C C38U as the variant, how does the self-cleavage read?
A: 0.27

Q: Which self-cleavage does the source give for C39A U66C here?
A: 0.39

Q: With C38A G63U as the variant, how does the self-cleavage read?
A: 0.1

Q: Which self-cleavage does the source give for C37U C40A here?
A: 0.21

Q: With C37U C40G as the variant, how does the self-cleavage read?
A: 0.22

Q: For C37G C44A, which self-cleavage is on record?
A: 0.39

Q: With C37A A57G as the variant, how does the self-cleavage read?
A: 0.2

Q: With C37A U41C as the variant, how does the self-cleavage read?
A: 0.25

Q: With C37A U41A as the variant, how does the self-cleavage read?
A: 0.19

Q: Which self-cleavage does the source give for C37U A75G here?
A: 0.59

Q: Which self-cleavage does the source give for G36U U78C here?
A: 0.17

Q: With G36U U78A as the variant, how does the self-cleavage read?
A: 0.43

Q: For C38A A75U, which self-cleavage is on record?
A: 0.39

Q: Which self-cleavage does the source give for C38A U67A here?
A: 0.17

Q: With C37U G52A as the variant, how does the self-cleavage read?
A: 0.93

Q: With C37U A56G as the variant, how does the self-cleavage read?
A: 0.45

Q: For C37U A56U, which self-cleavage is on record?
A: 0.47

Q: For C37U U74A, which self-cleavage is on record?
A: 1.17

Q: Which self-cleavage does the source give for C37U U74C here?
A: 1.12

Q: Which self-cleavage does the source give for C39A A57C here?
A: 0.14

Q: Which self-cleavage does the source give for C39A A57G here?
A: 0.3

Q: With C38U U54C as the variant, how does the self-cleavage read?
A: 0.68

Q: Which self-cleavage does the source give for C38U U54A here?
A: 0.85

Q: With C39A G70A as the variant, how does the self-cleavage read?
A: 0.11

Q: For G36U A45U, which self-cleavage is on record?
A: 0.19

Q: For G36U A45G, which self-cleavage is on record?
A: 0.22

Q: Which self-cleavage does the source give for C37A C39A here?
A: 0.29

Q: Which self-cleavage does the source give for C37A U69A here?
A: 0.12
